Experimental data reported in patent US20190017046A1.

Tests used:
[1] = target: lysozyme, fluorescence-labeled with Alexa Fluor 488; assay: fluorescent lysozyme retained in the sponge after 3 h in 10x diluted PBS; supernatant fluorescence, plate reader
[2] = target: lysozyme, fluorescence-labeled with Alexa Fluor 488; assay: grade of lysozyme carrying rate in the summary table (C: less than 25%)
[3] = target: lysozyme, fluorescence-labeled with Alexa Fluor 488; assay: grade of lysozyme carrying rate in the summary table (A: equal to or higher than 50%)
[4] = target: lysozyme, fluorescence-labeled with Alexa Fluor 488; assay: grade of lysozyme carrying rate in the summary table (B: 25% or higher and less than 50%)

lysozyme carrying rate (actual measurement value) [1] [%] | lysozyme carrying rate [2] [%] | lysozyme carrying rate [3] [%] | lysozyme carrying rate [4] [%] | Substance
66 |  |  |  | member for a preparation "B": thermally crosslinked substance of CBE3 and succinylated CBE3, molar ratio of CBE3 to succinylated CBE3 = 1 to 1
8 | < 25 |  |  | member for a preparation "G": thermally crosslinked CBE3 only, molar ratio of CBE3 to succinylated CBE3 = 1 to 0
71 |  | > 50 |  | member for a preparation "A": thermally crosslinked substance of CBE3 and succinylated CBE3, molar ratio of CBE3 to succinylated CBE3 = 1 to 3
38 |  |  | 25 to 50 | member for a preparation "C": thermally crosslinked substance of CBE3 and succinylated CBE3, molar ratio of CBE3 to succinylated CBE3 = 3 to 1
